# Test: soluble on expression in E. coli; label from the status in PepcDB or PDB records
row,Sequence,soluble on expression in E. coli
1,MTQHSRDTPQFYLTAPSPCPYLPGRHERKVFTHLVGNKAGELNDLLTHGGFRRSQSIAYRPACDQCRACVSVRVIANEFKPSRNQRKLLARNADIVGEQRNPVPTSEQYSVFRAYLDQRHRYGGMADMTVLDYAMMVEDSHVQTRMIEYRKRTPDTGITGRGGELIAAALTDVLGDGLSMVYSFYEPNEQHRSLGTFMILDHIARARRLGLPYVYLGYWIEGSKKMDYKGRYLPQQRLAPSGWLRIDASGEMQPEPQDLEHHHHHH,not soluble
2,MGSDKIHHHHHHMKAQSALSVKEANFKAMTTFIYTQGSATKQMFEHELGLSLPTITQNLRAMEADGLIVKGEMQKSTGGRKAQIYEFAAHSSVAIGVRIQTTRITAIAIDLNGKSVATRQRTLPYRNNDAYYQRMNDIINGFAQELAKQGSTVLGVAFCMQGIVSADGQSITFGKIMNNTGLKLSELSHGLNYPSLMIHDSDASAMAELWFDHNLKDAVCIYLERRPGGAVIVDGSLYQGPNQCNGSIEHMTLIPGGNTCYCGQQGCMDTYCSPETLMEDGESLPGFFSVLEQGEQEHRKRFSQWLDYVALAVTNIRSVLAGDVIISGEAAQYLDDDDMAGLRERVVEHTPFGTTDFTLRKGMALDHQDIIGAALRFVEPYVRELCDM,not soluble
3,GPGSMLRWQMQPVRTSVRNFIASGFPSKKLRYARLVDVEECASRPQFQKLLQSYLSDFFAKSHENGSTGSSPWFTAVPPSLRNSVEETVNYLGMLVAIDFRHWGEDPPDATPTGSRVENICGFYAELPEGSAETSGSVSYGGKRLIRGSMAMVHLLCRAVEVYHLNWHCPQFLQQFATTEDAMEALERCFLGYREDGHTSMWMPAARERVELLLSLSRSLVEKDTSFFKMLCLSEGYLYHPIFPHLGFVEMLVELHPRYYDVCVLRGEVGGGKDSDQGDEIVIPMLKLAQLTVMAIEEAVSAMDTVAANTPNVTEAPFPFSGAHGVFKDKHHLTVCCDYQLPKALRSLGLVEYDSYLASLVDTGVLLAAGGVEECCIRVAALVASDLLLDYLRSSCACTTGREWRPESTSRVWDAPALDCMLWWIGRHYVDSAVKHHLCRTIMY,not soluble
4,MGSDKIHHHHHHMKVIIVDDDKAMFLILKKMLSKIHNVEVIGTFDRLSTTMEFLENNEVDLAFLDIKISGDNGIDLAKQIVNLKKQINIVFISSHKEFALDSFDVFPLDYIVKPVSQEKLERAIDRASKVIIKSGEEEYKAFIYCFGGLEVRGRNNESVKWISTKSMELFSYLVINSGRSISRGRVIKDIFEEMELKDVESYLNTIVYQLRKALSPLGLKKIITFDSQGYSFDFKDVYVDYIDFISGVESIKEINKDNIDRAKQLVYLYKGDLFDDKEYIWAVGEKEYASNLYSKFLGKVCSWYLENDLINDAYSMGKKLIQYNELDSEVNKIFMNILAARRDKISLNKHYERYAKVLFRELGVKVEDSVEELYRKLIKVLR,not soluble
5,RGSLTIYIGYSPGVGKTFEMLSNAIELFQSNVDIKIGYIEPHQRDETNALAEQLPKITTNFTKHGSHHFQYLDVDRIIEESPTIVLIDELAHTNISRDRHEKRYMDIEEILNHGIDVHTTLNIQHIESLSSQIELMTGVHVKERVPDYFIMSADVLEVVDISPEQLIKRLKAGKVYKKDRLDVAFSNFFTYAHLSELRTLTLRTVADLMSDKEKVRHNHKTS,not soluble
6,MAHHHHHHMRRWLRNVRGGLLHPRAARLMVSCGKTHGLHMVSTVSRNTETEDEEIRDNESFPHQDDDDESVTEISEEMMRSLPKAPPKLRSAGSLLSTEEQEQLTRMIFKAHYAGEGMGENDRAMWYQSALEIHWLEEWAYEEFDGQTQRDVARRAVKKAVLQRVDLHKPLAYIIGHQPFYGCDIRCSPPLLCPRPETEMWTHWLVRTWLSKIPETTQPLRVLDMCCGTGCVGIAIAKHVPSAQVTAVDILDEAIGASEENAKLNGLEASRFCTLKSDMFESFLVSNSGSLTGEDTKLDLKKKEPAAEHAGSFDIIVSNPPYVLPDQYTDLPPGIKLWESKLALVGDEKREQQQYLYFQELSEFGSLLLKPKAMRNPALCAAPNIVIEVGLQAEQVASVMEKSKLWENVEIHLDYAQQMRWITASSSH,not soluble
7,AKDFEWNFAATLSMDKNKVTRLYGDNDVVYNVDSDRNIQKEGNLFLGESRNTIYIWKTGGIAQEIDMDRLNKINWNGYNVNPGDLYPLDYDNNGQIDQNDRVVIGSTDPKFYGGFSTDFSWKGLSLNAVFSYSYGAKKLSPWYETLIGSTGSGVASTDLLDRWTPENTDAEFPRVLAGFDYNHYGASSMDFSVQKASFLRLSALTLAYTFPTKVINALKLTNLRVYATGSNLFCLTNYNGYDPETGDWYPPTRMYTFGLNLAF,not soluble
8,MLTSKPEIKNSELNSYLVGGAVRDKLLNRPIKDEDYLVVGASIEQMIKLGYHQVGKDFPVFLHPKTKAEYALARTERKQGQGYTGFSCYFAPDVTIEQDLLRRDLTVNAMAMDHNGKIIDPYNGQNDLNDRILRHVSDAFIEDPLRVLRVARFAARYHKYGFTIADETLTLMQEISASGELKCLTPERVWQEMQLSLADGGANSDTNSGNPEVFFEVLQQCNALEELWPELAVLWGIPNPALWHPEICSGIHTMMVLQQAVLLTQAIPDEHSDHRTAVRFAALCHDLGKGVTSDKLWPSHKGHETSGLPLVERICGQLKVPSHYKQLALKVCEFHLHCHKAFELKASTLLKMFNQLDIWRKPEEFDLFLMACKSDFLGRLGFENRAYPQEQYLQAAVKAARKVTAQPFLEKGLQGLAIKEAMAKERLSVIANIKADFAHLNPTPQ,not soluble
9,PQQSTWQMATNTPLECRLVHPIPNYGDAEFSSRAGKKINLDFELKMRRPMGDTRNVSLVSMPPVWRPGEGADRITNLQFFKQFDGYIGGQTAWSLLSELEKGRYPTFSYQDWQSRDQRIEVALSSVLFQQPYNEFSDCISKLLPYS,not soluble
10,MYLQDRSPYMENSGSSNDRNSGKTEYQLTLIGALKKEIEIARRLDPEKLAAEIKKTGFSCQNCGKCCKRAFGDNRVVLTPQEIEKIQKYTDLSKLEVAGPLIPDISCPEEAGEGEEDRVAENSSIMPEIDEKKTSEPFRTPELLKEDIDPDGNIHAYGWMLRRKRNGDCVFLEKDTNRCRIYPVRPMLCSTYPFYIEGLKLYTCECEGLGVHISAEESRKLAGSLLSRYVSELEDTLAMYEKYEDFERTEKGHEIAKNNLEKGTCIYIVHDSRGITKIIDLEHHHHHH,soluble
11,SYDSPDYTDESCTFKISLRNFRSILSWELKNHSIVPTHYTLLYTIMSKPEDLKVVKNCANTTRSFCDLTDEWRSTHEAYVTVLEGFSGNTTLFSCSHNFWLAIDMSFEPPEFEIVGFTNHINVMVKFPSIVEEELQFDLSLVIEEQSEGIVKKHKPEIKGNMSGNFTYIIDKLIPNTNYCVSVYLEHSDEQAVIKSPLKCTLLPPGQESEFS,soluble
12,MEIDKEILKRCKKYDRASFSQLFHLYEKYLYNLCYGYTQNTSDAMDLVQEIYIKVFKNIKNFDENLPFHPWVRKISVNTCLNFKRDNRGNVMSLNSKYYDSEFEEEDRLAEDYNMEQEVVNRINNEVVKESIKKLTYDYRMVIMLRYYEDLSYDEIASVLDMPIGTVKTKIYRAKNVLKKSLEKKLEVKK,not soluble
13,MSLLMIIDCHGHYTVLPKAHDEWREQQKAAFKAGQPAPPYPEISDDEIRETIEANQLRLIKERGADMTIFSPRASAMAPHVGDQSVAVPWAQACNNLIARVVDLFPETFAGVCMLPQSPEADMTSSIAELERCVNELGFIGCNLNPDPGGGHFKHPPLTDRFWYPFYEKMVELDVPAMIHVSGSCNPAMHATGAYYLAADTIAFMQLLQGNLFADFPTLRFIIPHGGGAVPYHWGRFRGLADMLKQPSLDTLLMNNVFFDTCVYHQPGINLLADVIDNKNILFGSEMVGAVRGIDPTTGHYFDDTKRYIDALDISDQERHAIFEGNTRRVFPRLDAKLKAREGHHHHHH,soluble
14,MAHHHHHHMPRSIRVRHGDPDVAEGALTIEVPSSPDADNKAVGDARTPVASLGASSAFFTTYSTVSGDVAHPCANIASGAAPSDEVSPLTSALFMSVDSTPLASSCATKTAASLVNVRSFNSSATVVSVELPNLQSEHAAMTATSCFATRSRDTEAPAAAAAASATNPPPLRHPLGSAPIEGGGGQTQLAGEADTPVQDRTAAPSSSPLMAKASVSASFSGDSSKRCSHTVQSGLSDDLQLTQTTCYLPLLGSAGSREVQRSGDDIDARWVAERESVPAAEPARTTVGNDSFPAEGSEGAMVATTQSASTDVRAAACTVPASNISNTVAATATDVAAPLCPKFEVLATVPAPLVGRVPIRIHWCCAAHWRAVQRTERGAQWAVDGAPADVYCVPAHRNAKRERRSLSASCVEAKSESERGGRSFSGTGENTAWLRDAAGEVKPQHWEVRALSSAVGAPGSTLYDDSNYDAEHEKHGSLKTRSGLPHVHSHSCTDMLTCEFCGHAVERYHSEDCDDEASEASTSMTQTGRACSAPPGRFQDCHGCASAEARSLSSSKIVAFRSNQPSILTPQLLLSSSESAETTVDLDMSGAISSVDVPSWSDSAREEALMAAVALLQ,not soluble
15,MSLTADKYTVAINENALKILGEIVFLMGASQNFAKYPVSFIINYLLPSIYLNQYRIYRTVKDNKPIGFACWAFINDQVEKELIENDINLSVEERNSGENIYVLYFIAPFGHAKQIVHDLKNNIFPNKIVKGLRLDKDGKKVLRVATYYEGHHHHHH,soluble
16,MSFPLIFERSRKGRRGLKLVKAVPKAEDLIPKEHLREVPPRLPEVDELTLVRHYTGLSRRQVGVDTTFYPLGSCTMKYNPKLHEEAARLFADLHPYQDPRTAQGALRLMWELGEYLKALTGMDAITLEPAAGAHGELTGILIIRAYHEDRGEGRTRRVVLVPDSAHGSNPATASMAGYQVREIPSGPEGEVDLEALKRELGPHVAALMLTNPNTLGLFERRILEISRLCKEAGVQLYYDGANLNAIMGWARPGDMGFDVVHLNLHKTFTVPHGGGGPGSGPVGVKAHLAPYLPVPLVERGEEGFYLDFDRPKSIGRVRSFYGNFLALVRAWAYIRTLGLEGLKKAAALAVLNARYLKELLKEKGYRVPYDGPSMHEFVAQPPEGFRALDLAKGLLELGFHPPTVYFPLIVKEALMVEPTETEAKETLEAFAEAMGALLKKPKEWLENAPYSTPVRRLDELRANKHPKLTYFDEG,soluble
17,MSLSSILECIRTVGRGERGRKPLNFDQAFRVMDEYLNGECGDDQMAMLLMLIRVQNETQQEIAGFVKAFQSRMPAIGADIDWPCYAGKREAAGQPWHLLAAKILADNGHKVLMHGYHDRQPGRLHAEDYLDKFAIKKAESAEDAKRVLETQNIVYLPLSAFAPQAETMIGWKNRYGLRTPINTVVRALNPGQATVGIRGSFHPGFQQLHAEVEYEIGQTAHAVVSFKGQSGESEYNPKVSQTVWLSQPSGVTSHYWTEQMLSEVPMPTVCPFGTEETDMNQMANTVLTTIAVVLFAEMHDREQAFERAFSYWASYCAAEGHHHHHH,soluble
18,MGSDKIHHHHHHMNRLGKALPPLASLMPFEAAARLESFSRAADELHLTQAAISRQIRALEDDLGVALFERRNRGVFLTAAGREFGRTVSAALEGIAAQANALRQEVHDGVVVLFCQLCEAFYWVMPRLASLNRRHPELEVRLVTSTRPVVEHHDYFDVALQTSGRPSGSHALAFTASDEIFPICSPGYLAAQPRPITLASLPEHCLLHHEADPPDWFEWDSWLRAMGNFAPALGNGMVFDSYPLVLQAALAGHGIALGWRRSAEHLIQSGQLVRPLSMSLPLDNALSVYTRHGAQPRAETLALLDWLQREFRRDDQTTPA,not soluble
19,MTNKEIKKLCRSFGADLVGVASVERFVNAPKGYHPTDVMPTAKSVISLGMVLPKDILEQDIRTYTDIRNEAVKKMDKVAADVAAELKGLKYKAVSIVSLSGKFVDGHFRSRVSLKHAAELAGLGVIARNYLLTNDKYGNLLWFTAVVTSLELEPDPLATYQVCNNCNLCVDLCPSGALTDENNFSQKGCRKVCYITVKGVLELRCWQCRNVCPYKHGIND,not soluble

# Reference: the DeepSol protein solubility set
